The sequences below were run on K4 kissing-loop RNA reporter (assay: apparent KD of K4 kissing-loop reporter; higher = weaker reporter binding). Conditions: Eterna round: R107; input ligand: theophylline 20 uM.
Experimental: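 RNA-MaP round R107: designed RNA switches with theophylline, tryptophan, arginine or FMN aptamers are transcribed on-chip within common flanks. They are titrated with a labelled K4 kissing-loop RNA reporter in RNA-MaP buffer (100 mM Tris pH 7.5, 80 mM KCl, 4 mM MgCl2), without ligand or with the indicated ligand. Median apparent KD per design.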
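Also: bound reporter read as fluorescence of individual clusters on recovered sequencing chips by microscopy, with normalized cluster intensities fitted with a binding model.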

Row | Sequence | apparent KD of K4 kissing-loop reporter [nM]
1 | CCGAUACAUUAUUCUACGGCCGAGAGUGAUACCAGCCGUAUUUGUGGCCCUUGGCAGCGCAGAUGCAGUGAUGUUGCAUACUUGU [Same State Theophylline A GF 20] | 96.6
2 | UUAAUAUUGUCGGCCGCCACUGGAUAGUAAUUUGUAUAAUCUAUUUCAAAGUGAUGUUUUGAGUCCAGGACCGGGACAUUUGAUA [JR_Nu_ExcTryptoB_Sub030] | 406
3 | UUUGAAAUGUCUGAUACCAGAGAAAAUAUAUGUAGUGAUGUUAUAUACAAAUUUAAUAAGCUCCCUUGGCAGCAGUAUGAAUUUU [AstrosExc-TheB#14] | 748
4 | UGUGAUGUGUAGUGUUAUGUUUUGCGGGAUACCAGAGUCUUUUUAUUCCCUUGGCAGCUUGAGUGAUGUUUGAUGCUGUUCUUGU [cxxdmullin] | 410
5 | CGCAGUGAUGUUGCUAUAUUUCUUGAUUAACGAGGACCGGUACGGCCGCCACUCGAUUUCUCUCUAAUCCACUAUGUUGUUUAGA [JR_SSTryptoA_Sub002] | 524
6 | AGACUAUCGUCAAAGACGGUAGUCAAAAGUGAGGAUAUAGUGAUGUUUAGAAGGCACUAAGACUGUAUCGAAUAGAUACGGUCAA [FmnA 1 #K4BetweenAptamer #OpenEnded] | 1250
7 | AAUAAUCUAGGUGAUACCAGCUCAACAUGAGUGAUGUUCAUGAACUAAUGUAGAGUUGAGAGCCCUUGGCAGCACCUAGAUAAUA [KL-SSTheoB6] | 458
8 | CCGCCAUCAUCAGAUACCAGACUGAUGGCGGUAACCGCCAAGCGAGUGAUGUUCGCAUCAGUCCCUUGGCAGCUGAUGAAGACUG [Theo B SS t4] | 104
9 | GGAUGGUAGGCGGCCGCCACUAAAACUGAACACAUACAAGCCAGUGAUGUUGGUAUGAUGGAGUAUAGGACCGGGCCUAGAUAGA [Exclusion - Tryptophan B (Freestyle 4)] | 420
10 | UGUGUUGUUGUGAUGUUUGGUGUUGUAGGGCAGGAUAUCGUAGAGGCGAGAAGGGCUUGUGGGCGGUAUGAGUGAUGUUUGUAGG [cfiuxmullin] | 143
11 | UGCAGUGAUGUUGCGAGUGGCAGAUACGAAGGAGCGUGGUGAGACACAGGUAGGUCGCGUAUUGAAAUUGCUGUCACUAAAAUGC [#7] | 483

Same assay, conditions: Eterna round: R107; input ligand: tryptophan 2.4 mM

Row | Sequence | apparent KD of K4 kissing-loop reporter [nM]
12 | AGCGCUGCCUGAGGAUAUAGAGACGAGUGAUGUUCGUGGAUUGAUACCAGUGAUGUUGGUCUAUUUCUAGAAGGCAGGCGAUCGU [Exclusion FMN B GF 3] | 103
13 | UAGGGCAUCGCAGGAUAUCCUGCUUAACGUUGGAUUCCAGUGAUGUUGGAAAGUCGGCCUAGGGUAGGAGAAGGGCGAACUUGAA [Maxean] | 98.1
14 | AUGUAUGAAUUAGGAUAUCGUGAGCCAUGCAUAUAUAUGAUAAAUGGAUAUGUCGUAGUGAUGUUACGAGAAGGAGUGUGGAGUA [KL-XFMN-B2] | 50.6
15 | AGGGACUCUUCGGAGUCCCGGUCAAGGGAUACCAGUGAUGUUGGUCACCCUUGGCAGCCCAGAAACCAAGCCACCAAAGGUGGCA [Omei KL Theo A Exc A v3] | 107
16 | AGCCGAAAGGCGAGUGCUGUCACUCCGGAAGGAGCGCUCAAAAGAGCAGGUAGGUCGCCGGAGUGAUGUUCCGGUGCAGCACUCA [Omei KL Arginine A Exc B v4] | 623
17 | CCCUCACGAGUGAUGUUCGUAGGGUACAGUCAGGAUAUCAUGCGGUUGAGAAGGGACAGAGAGGGCGGCCACGGGUUGCUCCUCU [Lariusteza] | 305
18 | AUGUGGAGCGACGUUUCGGGAUAUCGGGAAGGAGCGCUGAUAACGGCAGGUAGGUCGCCUGGUCCAGUGAUGUUGGGCAUGCAUU [Exclusion Arg A GF 24] | 155
19 | CGACGCCGGUCGGCCGCCACUCACAGCAGCCAGUGAUGUUGGAUUGUAGCGGAGUGAUGUUUCGCGAGGACCGGGACUGCAGUCG [Same State Tryptophan B GF 12] | 143
20 | GGCAGUGAUGUUGCCUUCGCAAUGCAUGCAGAGGAUAUUCGUUUGGGAAGAAGGCUGCAGCGUUCUCUCGAGUGAUGUUCGGGUG [Same State FMN A GF 19] | 177
21 | UUGCCUUUGAGCGAUACCAGCAGCGUCGGCCUUAGAUUGGGAGGCAUGGCAAGUGAUGUUUGCCCUUGGCAGCGCGUAUAGUACA [theeternabot_exclusion_KL_Theo_B_7] | 219
22 | GCCUAGCAGGGAAGGAGCGCCAUAAGAAGUAAAGGAGGGAGUUGAGUGAUGUUCAAAAUGUGGCAGGUAGGUCGCCCUGCUAGGC [KL-SSArg B13] | 507
23 | UGUCAUUGGUCUGAUACCAGUCCCUUGGCAGCCUAAAGGAGUGAUGUUCCAAGGAUACCAGACCCUUGGCAGCAGACCGAUGACU [TheoBS 28 #DoubleAptamer #SwitchBubble] | 354
24 | AAGAGCCUCAAGAGGCAGUAUCUGCCUCAACGAGGACCGGUACGGCCGCCACUCGAAUAAUAGAGUGAUGUUCUAAGAGGCUCAA [AK8 SS Tryptophan A] | 487
25 | UUUCGCUUCGUCUGAUAUAAUUGGCCAGAAGGAGCGGUAGAAUUACCAGGUAGGUCGCUGGCCCAGUGAUGUUGGGACUAGCGUG [Isrianve] | 94.1
26 | UGAUACCAGACGGCCGCCACUACACCAGUCAAAGACUGGAUGUGAUGUUCGACCAGUGAUGUUGGUAGGACCGGGUCUGGUAUCU [TrypBX 7 #Palindromic #SwitchBubble #StaticStem] | 147
27 | UUUGGAAGCGGUGUUGAUUAGGGAGCGGAAGGAGCGCCGAGGAGGGCAGGUAGGUCGCCGGAAUGUAGUGAUGUUGCAUAGAGGU [ExArgA.Aa] | 178
28 | UGACUGGACUGAAGGAGCGCUAAACUCCUAGUGAUGUUAGGGAAACGAGACAAAGUCUCGAGGCAGGUAGGUCGCAGUCUAGUCU [FiskerMod 1 - Jieux - Same State - Arginine B] | 244
29 | CUAUCUUAAGAAGGAUAUUAUGUAACAAACGCAGGCGUAUUAGAAUCAGUGAUGUUGAAAUAGGUUUAAGAAGGUCUUAAAGAAA [theeternabot_sameState_KL_FMN_B_31] | 243
30 | ACCAAUUUACCGGCAGUAGUGAUGUUACUCCGAGGACCGGUACGGCCGCCACUCGCGAACGUAGGGUUUCUGACUCGAAGAGUCU | 171
31 | GGCAGUGAUGUUGCCAGUGGCAGAUGUGAAGGAGCGCGGUGAGACGCAGGUAGGUCGCACAUUGAAAUUGCUGUCACUAAAAUGC [#02 K4 Arginine A Exclusion] | 215
32 | AGGCGGCAUAAUUGACUGAAAAGAAAUUAACGAGGACCGGUACGGCCGCCACUCGAACACCAGUGAUGUUGGUAUGGGAUAAUUU [Exclusion Tryptophan A GF 18] | 47
33 | GCCGUAGAUUGAAGGAGCGGUUCAUCAAUUCAAGUCGAGUGAUGUUCGACGAUUCUCAGUAACCAGGUAGGUCGCAAUCUACGGC | 143

Row | Sequence | apparent KD of K4 kissing-loop reporter [nM]
34 | GGAGCCGAUAGUGAUACCAGCCAGUGAUGUUGGCGAAGUCUCAUUUUCGCUCUCGGUAAGGGCCCUUGGCAGCACUUACUCGGAA [Arledied] | 104
35 | CAUGAGUGAUGUUCGUGCGCUUGGUCGAAGCGAGGACCGGUACGGCCGCCACUCGCUAUGGCGGCAUCUACCAGUGAUGUUGGUG [Same State Tryptophan A GF 2] | 208
36 | UGACUGGACUGAAGGAGCGCUGAACUCCUAGUGAUGUUAGGAAAACGAGACAAAGUCUCGCGGCAGGUAGGUCGCAGUCUAGUCU | 99.2
37 | AAGCGUAAAAUGGCGGACAUACUGCUCCCACGAGGACCGGUACGGCCGCCACUCGAGUGCGGCAGUGAUGUUGCCGCCUUAGCGU [KL-XTryp-A20] | 81.9
38 | UUAGAUCUUCUAGAUACCAGUCUGUGUAUCAAUGAUACACUUGACUGAGUGAUGUUCAGAGGCCCUUGGCAGCUAGAAGAUCAUU [AK1 SS Theophylline B] | 490
39 | CUGACUCAAUAGUCAGUGAUGUUGACUGGACGAGGACCGGUACGGCCGCCACUCGAGAGUGGUGUAAAAUAUGUCACAGAGUCAG [Tryp A SS t3b] | 200
40 | GAUAUAUAUAGAGGAUAUAGCAGGUGAUACAAGAAAGUGAGUGAUGUUUAUGUAGAUGAUGAUAUGUUAGAAGGCUAUAUAUAUC [radioactive7-modED1598] | 706
41 | UAUGAAGGUGGAGGAUAUUGAUUGAGCCUUGGUCAGGAGUGAUGUUCCGGGAAGCCUUGGGUUCAUCGAGAAGGCCAAGGAUAGU [#09 K4 FMN B Same State] | 232
42 | UGACUGGACUGAAGGAGCGCGCGAGACAAAGUCUCGAACUCUUAGUGAUGUUAAGAAAUAACGCAGGUAGGUCGCAGUCUAGUCU | 150
43 | AAAGAGUCACUCGAAGCCAUCGAAGAUGGGCGAGGACCGGUACGGCCGCCACUCGGAGUGAUGUUCCGAAGACUGUAAAAUAAAA [MatMod 11 - Jieux - Exclusion - Tryptophan A] | 355
44 | CCGAUACAUUAUUCUACGGCCGAGAGUGAUACCAGCCGUAUUUGUGGCCCUUGGCAGCGCAGAUGCAGUGAUGUUGCAUACUUGU [Same State Theophylline A GF 20] | 63.5
45 | UUAAUAUUGUCGGCCGCCACUGGAUAGUAAUUUGUAUAAUCUAUUUCAAAGUGAUGUUUUGAGUCCAGGACCGGGACAUUUGAUA [JR_Nu_ExcTryptoB_Sub030] | 297
46 | UUUGAAAUGUCUGAUACCAGAGAAAAUAUAUGUAGUGAUGUUAUAUACAAAUUUAAUAAGCUCCCUUGGCAGCAGUAUGAAUUUU [AstrosExc-TheB#14] | 582
47 | UGUGAUGUGUAGUGUUAUGUUUUGCGGGAUACCAGAGUCUUUUUAUUCCCUUGGCAGCUUGAGUGAUGUUUGAUGCUGUUCUUGU [cxxdmullin] | 352
48 | CGCAGUGAUGUUGCUAUAUUUCUUGAUUAACGAGGACCGGUACGGCCGCCACUCGAUUUCUCUCUAAUCCACUAUGUUGUUUAGA [JR_SSTryptoA_Sub002] | 319
49 | AGACUAUCGUCAAAGACGGUAGUCAAAAGUGAGGAUAUAGUGAUGUUUAGAAGGCACUAAGACUGUAUCGAAUAGAUACGGUCAA [FmnA 1 #K4BetweenAptamer #OpenEnded] | 1920
50 | AAUAAUCUAGGUGAUACCAGCUCAACAUGAGUGAUGUUCAUGAACUAAUGUAGAGUUGAGAGCCCUUGGCAGCACCUAGAUAAUA [KL-SSTheoB6] | 962
51 | CCGCCAUCAUCAGAUACCAGACUGAUGGCGGUAACCGCCAAGCGAGUGAUGUUCGCAUCAGUCCCUUGGCAGCUGAUGAAGACUG [Theo B SS t4] | 154
52 | GGAUGGUAGGCGGCCGCCACUAAAACUGAACACAUACAAGCCAGUGAUGUUGGUAUGAUGGAGUAUAGGACCGGGCCUAGAUAGA [Exclusion - Tryptophan B (Freestyle 4)] | 421
53 | UGUGUUGUUGUGAUGUUUGGUGUUGUAGGGCAGGAUAUCGUAGAGGCGAGAAGGGCUUGUGGGCGGUAUGAGUGAUGUUUGUAGG [cfiuxmullin] | 101
54 | UGCAGUGAUGUUGCGAGUGGCAGAUACGAAGGAGCGUGGUGAGACACAGGUAGGUCGCGUAUUGAAAUUGCUGUCACUAAAAUGC [#7] | 362

From the supplement of paper PMC9170038
